# Results published in patent US20230398229A1, “ANTIBODY DRUG […] AGONISTS, COMBINATIONS AND METHODS OF USE” (Mersana Therapeutics, Inc., priority 2022, published 2023).
# Columns and labels:
# rat HER2 = rat HER2 (Rattus norvegicus, UniProt P06494); experiment: Binding of antibody to rat HER2
# HER2 = HER2 (Homo sapiens, UniProt P04626); experiment: Inhibition of HER2 functional activity in vitro
# Chain of rat HER2 (P06494 23-1257): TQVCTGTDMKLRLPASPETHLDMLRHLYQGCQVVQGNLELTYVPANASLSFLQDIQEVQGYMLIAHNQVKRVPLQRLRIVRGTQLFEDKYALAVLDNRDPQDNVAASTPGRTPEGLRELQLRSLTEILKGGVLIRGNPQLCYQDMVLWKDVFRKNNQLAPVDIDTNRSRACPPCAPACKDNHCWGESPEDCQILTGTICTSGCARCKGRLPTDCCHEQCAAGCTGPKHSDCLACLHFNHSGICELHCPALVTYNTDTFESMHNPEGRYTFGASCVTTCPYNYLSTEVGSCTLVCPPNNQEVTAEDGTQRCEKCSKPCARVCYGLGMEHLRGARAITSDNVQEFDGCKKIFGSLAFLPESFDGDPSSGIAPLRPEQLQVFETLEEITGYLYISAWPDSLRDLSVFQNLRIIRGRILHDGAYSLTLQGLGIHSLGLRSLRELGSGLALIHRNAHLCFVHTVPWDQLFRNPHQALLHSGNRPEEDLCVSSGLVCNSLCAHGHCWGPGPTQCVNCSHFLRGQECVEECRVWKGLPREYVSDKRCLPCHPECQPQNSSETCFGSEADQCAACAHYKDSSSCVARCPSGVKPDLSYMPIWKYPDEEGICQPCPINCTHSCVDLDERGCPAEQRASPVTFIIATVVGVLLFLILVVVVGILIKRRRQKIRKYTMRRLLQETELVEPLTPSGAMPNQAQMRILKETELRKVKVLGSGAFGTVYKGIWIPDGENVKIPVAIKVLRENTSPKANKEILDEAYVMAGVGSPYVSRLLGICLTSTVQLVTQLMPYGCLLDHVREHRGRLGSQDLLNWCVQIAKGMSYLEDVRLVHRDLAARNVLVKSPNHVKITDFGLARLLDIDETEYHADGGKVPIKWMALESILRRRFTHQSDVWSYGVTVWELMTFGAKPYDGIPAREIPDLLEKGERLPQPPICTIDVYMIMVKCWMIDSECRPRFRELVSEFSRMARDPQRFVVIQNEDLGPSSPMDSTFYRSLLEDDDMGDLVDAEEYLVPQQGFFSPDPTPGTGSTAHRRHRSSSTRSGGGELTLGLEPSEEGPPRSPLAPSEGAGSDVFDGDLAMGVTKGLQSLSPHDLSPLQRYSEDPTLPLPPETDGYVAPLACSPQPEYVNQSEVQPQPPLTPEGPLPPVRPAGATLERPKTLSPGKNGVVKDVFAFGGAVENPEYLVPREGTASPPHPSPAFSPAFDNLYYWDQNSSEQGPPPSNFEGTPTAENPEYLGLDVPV
substance,measurement,setting,value
"XMT-1519: anti-Her2 antibody disclosed in U.S. Pat. No. 9,555,112 and 9,738,720",Binding to rat HER2,rat HER2,does not bind
same,Functional activity of HER2,HER2,inhibit the functional activity of HER2
